Measurements taken from patent US20060088535.

Tested on: ApCREB-1 (Aplysia californica)
Assay: cell_activity
Conditions: F9 cells with PKA; 2.13 without PKA; 1.64 with ApCREB-2 plus PKA

TGACGTCA (double strand) [single CRE palindrome in pGL3-CRE reporter]
activity (fold activation): 10.5
